Measurements taken from US20080267908A1 (YEDA RESEARCH AND DEVELOPMENT, published 2008).

T1: commercially available human PR-3 (Athens Research and Technology) inactivated by PMSF (human, UniProt P24158 28-248, inactivated by PMSF; the modified residue is not stated)
T1 construct: mature; Same product as the commercial PR-3, treated with PMSF before the assay; also called PMSF pretreated commercial PR-3
T1 sequence (looked up): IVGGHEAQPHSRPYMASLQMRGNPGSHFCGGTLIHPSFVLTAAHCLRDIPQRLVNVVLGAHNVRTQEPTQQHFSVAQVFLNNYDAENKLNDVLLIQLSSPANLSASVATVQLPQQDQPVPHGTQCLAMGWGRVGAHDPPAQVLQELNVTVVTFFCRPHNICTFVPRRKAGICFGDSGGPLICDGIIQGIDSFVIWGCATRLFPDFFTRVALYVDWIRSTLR

T2: human urinary Proteinase-3 (PR-3), affinity purified (elution fraction 3 of the IL-32 column), active (human, UniProt P24158 28-248)
T2 construct: mature; also called urinary PR-3; urinary PR3
T2 sequence (looked up): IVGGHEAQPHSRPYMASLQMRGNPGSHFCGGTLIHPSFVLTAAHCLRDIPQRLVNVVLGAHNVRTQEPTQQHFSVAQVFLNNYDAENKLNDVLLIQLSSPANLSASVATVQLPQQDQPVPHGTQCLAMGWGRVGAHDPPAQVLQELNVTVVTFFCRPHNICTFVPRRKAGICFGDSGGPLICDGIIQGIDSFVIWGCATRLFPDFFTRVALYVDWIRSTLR

T3: commercially available human neutrophil derived PR-3 (Athens Research and Technology), active (human, UniProt P24158 28-248)
T3 construct: mature; Bought; purified from human neutrophils; also called commercial PR-3; commercially available PR-3
T3 sequence (looked up): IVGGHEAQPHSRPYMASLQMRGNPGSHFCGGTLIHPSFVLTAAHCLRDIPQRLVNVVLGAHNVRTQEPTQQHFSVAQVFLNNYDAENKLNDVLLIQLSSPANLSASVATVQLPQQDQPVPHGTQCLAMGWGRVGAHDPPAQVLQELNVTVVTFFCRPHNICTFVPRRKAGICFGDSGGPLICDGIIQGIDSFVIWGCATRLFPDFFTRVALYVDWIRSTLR

T4: human urinary PR-3 inactivated by phenyl methyl sulfonyl fluoride (PMSF) (human, UniProt P24158 28-248, inactivated by PMSF (1 mM); the modified residue is not stated)
T4 construct: mature; Same preparation as the urinary PR-3, treated with PMSF before the assay; also called PMSF pretreated urinary PR-3
T4 sequence (looked up): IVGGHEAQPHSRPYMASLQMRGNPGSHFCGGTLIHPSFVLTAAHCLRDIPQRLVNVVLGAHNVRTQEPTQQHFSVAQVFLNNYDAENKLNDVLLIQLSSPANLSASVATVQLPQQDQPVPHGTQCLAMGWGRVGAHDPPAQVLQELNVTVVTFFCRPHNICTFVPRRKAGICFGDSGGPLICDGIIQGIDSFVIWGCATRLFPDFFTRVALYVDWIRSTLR

T5: 125I-IL-32 (radio-iodinated IL-32)
T5 chain: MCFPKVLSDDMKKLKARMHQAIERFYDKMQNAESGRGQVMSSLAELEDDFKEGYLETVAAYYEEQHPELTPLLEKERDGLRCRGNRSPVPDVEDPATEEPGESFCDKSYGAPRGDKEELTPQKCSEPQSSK


Legend:
[1] = target: T1, commercially available human PR-3 …; test: SPR (BIAcore), IL-32 immobilized; commercial PR-3 inactivated by PMSF (FIG. 3B)
Method: (§1) FIG. 2 A. IL-32 (20 μg/ml) in acetate buffer pH 4.6) was immobilized to a single channel of a BIAcore chip as recommended by the manufacturer (Amersham Pharmacia, Uppsala Sweden). […] The resulting kD was 7.9×10⁻⁸ M.
(§2) For details see FIG. 2. The binding data gave a kD of 1.2×10⁻⁸ M with active PR-3, which considerably degraded the immobilized IL-32 (FIG. 3 A). The kD of commercially available PR-3 that was inactivated by PMSF (FIG. 3 B) was 3.5×10⁻⁸ M.
(§3) IL-32 (20 μg/ml) in acetate buffer pH 4.6) was immobilized to a single channel of a BIAcore chip as recommended by the manufacturer (Amersham Pharmacia, Uppsala Sweden). […] The same analysis was done with PR-3 that was inactivated by PMSF (1 mM) (FIG. 2B). The resulting kD was 7.9×10⁻⁸ M. The same analysis was done with a commercially available human neutrophil derived PR-3 (Athens Research and Technology, Athens Ga., 0.5 μg in 20 μl gelatin solution) (FIG. 3A). The resulting kD was 1.2×10⁻⁸ M. The binding was repeated with commercial PR-3 that was inactivated by PMSF (FIG. 3B). The resulting kD was 3.5×10⁻⁸ M.

[2] = target: T2, human urinary Proteinase-3 (PR-3), …; test: SPR (BIAcore), IL-32 immobilized, PR-3 at 10-80 nM; urinary PR3, active (FIG. 2A)
Method: as §1, §3

[3] = target: T3, commercially available human neutrophil …; test: SPR (BIAcore), IL-32 immobilized; commercial neutrophil-derived PR-3, active (FIG. 3A)
Method: as §1, §2, §3

[4] = target: T4, human urinary PR-3 inactivated by …; test: SPR (BIAcore), IL-32 immobilized; urinary PR-3 inactivated by PMSF (1 mM) (FIG. 2B)
Method: as §1, §3

[5] = target: T5, 125I-IL-32 (radio-iodinated IL-32)

Binder | cleavage of 125I-IL-32 (SDS-PAGE, autoradiography) [5] | also measured
recombinant human IL-32α produced in E. coli (ligand, also called hrIL-32; human recombinant IL-32) MCFPKVLSDDMKKLKARMHQAIERFYDKMQNAESGRGQVMSSLAELEDDFKEGYLETVAAYYEEQHPELTPLLEKERDGLRCRGNRSPVPDVEDPATEEPGESFCDKSYGAPRGDKEELTPQKCSEPQSSK | – | Kd [1]: 35 nM; Kd [2]: 26.5 nM; Kd [3]: 12 nM; Kd [4]: 79 nM
human urinary Proteinase-3 (PR-3), affinity purified (elution fraction 3 of the IL-32 column), active (protein) IVGGHEAQPHSRPYMASLQMRGNPGSHFCGGTLIHPSFVLTAAHCLRDIPQRLVNVVLGAHNVRTQEPTQQHFSVAQVFLNNYDAENKLNDVLLIQLSSPANLSASVATVQLPQQDQPVPHGTQCLAMGWGRVGAHDPPAQVLQELNVTVVTFFCRPHNICTFVPRRKAGICFGDSGGPLICDGIIQGIDSFVIWGCATRLFPDFFTRVALYVDWIRSTLR | the 20 kDa band completely disappeared and the levels of the 16 and 13 kDa IL-32 cleavage products increased after a 5 min. incubation with PR-3 | –
human urinary PR-3 inactivated by phenyl methyl sulfonyl fluoride (PMSF) (protein) IVGGHEAQPHSRPYMASLQMRGNPGSHFCGGTLIHPSFVLTAAHCLRDIPQRLVNVVLGAHNVRTQEPTQQHFSVAQVFLNNYDAENKLNDVLLIQLSSPANLSASVATVQLPQQDQPVPHGTQCLAMGWGRVGAHDPPAQVLQELNVTVVTFFCRPHNICTFVPRRKAGICFGDSGGPLICDGIIQGIDSFVIWGCATRLFPDFFTRVALYVDWIRSTLR | no cleavage products were observed with PMSF pretreated PR-3 incubated with IL-32 | –
commercially available human neutrophil derived PR-3 (Athens Research and Technology), active (protein) IVGGHEAQPHSRPYMASLQMRGNPGSHFCGGTLIHPSFVLTAAHCLRDIPQRLVNVVLGAHNVRTQEPTQQHFSVAQVFLNNYDAENKLNDVLLIQLSSPANLSASVATVQLPQQDQPVPHGTQCLAMGWGRVGAHDPPAQVLQELNVTVVTFFCRPHNICTFVPRRKAGICFGDSGGPLICDGIIQGIDSFVIWGCATRLFPDFFTRVALYVDWIRSTLR | the commercial PR-3 is more potent than the urinary PR-3, leading to complete disappearance of the 20 kDa IL-32 band within 1 min | –
commercially available human PR-3 (Athens Research and Technology) inactivated by PMSF (protein) IVGGHEAQPHSRPYMASLQMRGNPGSHFCGGTLIHPSFVLTAAHCLRDIPQRLVNVVLGAHNVRTQEPTQQHFSVAQVFLNNYDAENKLNDVLLIQLSSPANLSASVATVQLPQQDQPVPHGTQCLAMGWGRVGAHDPPAQVLQELNVTVVTFFCRPHNICTFVPRRKAGICFGDSGGPLICDGIIQGIDSFVIWGCATRLFPDFFTRVALYVDWIRSTLR | no cleavage products were observed with PMSF pretreated PR-3 incubated with IL-32 | –
